Source: paper PMC6906530, “Structural studies of the MMP-3 interaction with triple-helical collagen introduce new roles for the enzyme in tissue remodelling” (Scientific Reports, 2019)

B1: SPARC: matricellular calcium binding protein, secreted protein acidic and rich in cysteine (protein, UniProt P09486 18-303, looked up)
SPARC: APQQEALPDETEVVEETVAEVTEVSVGANPVQVEVGEFDDGAEETEEEVVAENPCQNHHCKHGKVCELDENNTPMCVCQDPTSCPAPIGEFEKVCSNDNKTFDSSCHFFATKCTLEGTKKGHKLHLDYIGPCKYIPPCLDSELTEFPLRMRDWLKNVLVTLYERDEDNNLLTEKQKLRVKKIHENEKRLEAGDHPVELLARDFEKNYNMYIFPVHWQFGQLDQHPIDGYLSHTELAPLRAPLIPMEHCTTRFFETCDLDNDKYIALDEWAGCFGIKQKDIDKDLVI

What was measured:
[1] = biological target: collagen I (Guinea pig dermis) (Guinea pig)
collagen I = settings: 10:1 molar excess over collagen; cited from earlier work
From the text: In both models of collagen fibril assembly, a number of MMP-3 binding sites are concealed, consistent with the observed inhibition of fibrillogenesis in the presence of MMP-3 (Fig. 4g).

Sequence of collagen I (Guinea pig dermis) (Guinea pig) (main, as listed by the source, chain 1 of 2): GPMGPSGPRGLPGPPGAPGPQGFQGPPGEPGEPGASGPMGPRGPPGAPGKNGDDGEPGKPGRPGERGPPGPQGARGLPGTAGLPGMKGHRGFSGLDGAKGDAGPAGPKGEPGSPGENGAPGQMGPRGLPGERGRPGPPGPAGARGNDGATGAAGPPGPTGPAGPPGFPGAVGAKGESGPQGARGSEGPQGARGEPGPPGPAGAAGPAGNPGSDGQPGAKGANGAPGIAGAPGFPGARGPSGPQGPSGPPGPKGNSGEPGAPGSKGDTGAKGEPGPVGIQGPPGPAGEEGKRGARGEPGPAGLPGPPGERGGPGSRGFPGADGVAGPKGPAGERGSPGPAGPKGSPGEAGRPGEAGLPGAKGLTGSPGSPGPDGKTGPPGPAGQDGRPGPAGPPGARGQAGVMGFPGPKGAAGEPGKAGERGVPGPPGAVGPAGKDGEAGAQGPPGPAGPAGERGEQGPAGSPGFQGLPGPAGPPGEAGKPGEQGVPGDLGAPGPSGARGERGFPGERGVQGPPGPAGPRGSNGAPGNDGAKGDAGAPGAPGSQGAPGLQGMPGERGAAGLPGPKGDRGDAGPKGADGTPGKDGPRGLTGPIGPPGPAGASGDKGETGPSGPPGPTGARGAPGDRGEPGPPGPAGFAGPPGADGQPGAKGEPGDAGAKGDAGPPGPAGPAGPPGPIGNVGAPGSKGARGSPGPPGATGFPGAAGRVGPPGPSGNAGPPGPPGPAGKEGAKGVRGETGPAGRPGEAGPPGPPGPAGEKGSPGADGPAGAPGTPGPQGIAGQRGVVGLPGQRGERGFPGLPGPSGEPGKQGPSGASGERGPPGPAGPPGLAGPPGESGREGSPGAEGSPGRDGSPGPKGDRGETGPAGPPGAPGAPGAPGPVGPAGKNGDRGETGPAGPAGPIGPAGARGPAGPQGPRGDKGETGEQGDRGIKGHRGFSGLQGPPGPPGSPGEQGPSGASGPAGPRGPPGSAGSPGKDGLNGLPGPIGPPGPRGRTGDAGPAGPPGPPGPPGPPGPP
Sequence of collagen I (Guinea pig dermis) (Guinea pig) (partner, as listed by the source, chain 2 of 2): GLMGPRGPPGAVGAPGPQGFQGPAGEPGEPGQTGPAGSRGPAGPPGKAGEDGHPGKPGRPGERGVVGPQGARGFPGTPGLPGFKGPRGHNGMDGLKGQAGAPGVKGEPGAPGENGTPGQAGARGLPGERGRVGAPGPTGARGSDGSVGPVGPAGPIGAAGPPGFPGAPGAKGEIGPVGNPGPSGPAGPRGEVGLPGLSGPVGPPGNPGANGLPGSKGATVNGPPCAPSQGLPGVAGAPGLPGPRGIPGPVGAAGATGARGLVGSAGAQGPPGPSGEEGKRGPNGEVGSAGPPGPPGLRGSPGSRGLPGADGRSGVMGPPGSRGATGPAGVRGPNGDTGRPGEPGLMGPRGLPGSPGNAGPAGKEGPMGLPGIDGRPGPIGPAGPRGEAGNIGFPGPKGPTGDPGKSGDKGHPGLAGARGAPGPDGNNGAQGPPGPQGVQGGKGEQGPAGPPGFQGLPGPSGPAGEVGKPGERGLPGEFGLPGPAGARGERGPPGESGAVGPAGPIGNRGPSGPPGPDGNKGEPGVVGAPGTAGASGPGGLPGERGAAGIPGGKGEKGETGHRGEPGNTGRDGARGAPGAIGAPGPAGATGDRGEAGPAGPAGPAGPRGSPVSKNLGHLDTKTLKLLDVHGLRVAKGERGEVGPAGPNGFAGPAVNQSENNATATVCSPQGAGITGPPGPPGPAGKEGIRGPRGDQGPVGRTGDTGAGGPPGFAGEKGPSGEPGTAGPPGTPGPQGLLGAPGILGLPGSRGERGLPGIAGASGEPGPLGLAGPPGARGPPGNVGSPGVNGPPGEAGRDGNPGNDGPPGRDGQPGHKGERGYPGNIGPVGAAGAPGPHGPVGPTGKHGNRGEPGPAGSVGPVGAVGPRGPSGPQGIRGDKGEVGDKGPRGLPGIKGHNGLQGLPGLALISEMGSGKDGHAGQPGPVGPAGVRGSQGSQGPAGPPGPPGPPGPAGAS

Molecule	collagen I fibrillogenesis by turbidity at 500 nm, 37 °C, 1 μM fibrillogenesis-competent collagen I (with telopeptides) with increasing MMP-3(E200A); delay at a ratio of 0.5:1 to collagen I [1]	Delay of collagen fibrillogenesis relative to MMP-3(E200A) (collagen I)
mature MMP-3(E200A) (from UniProt P08254 100-477) (enzyme)	50 min	
B1		comparably
